Non-standard residues stand in square brackets, D forms with d. *: point of attachment. pNA = O=[N+]([O-])c1ccc(N*)cc1; HHT = not defined here

The target in the assay is T1, activated protease T-HA6×HIS (Homo sapiens, UniProt Q9BQR3, D40A/M35I/Q39Y/Q42E/T41L).
T1 construct: made in house; host or cells: Sf9 insect cells (baculovirus)
T1 sequence (Q9BQR3 35-290 M35I/Q39Y/D40A/T41L/Q42E limits assumed): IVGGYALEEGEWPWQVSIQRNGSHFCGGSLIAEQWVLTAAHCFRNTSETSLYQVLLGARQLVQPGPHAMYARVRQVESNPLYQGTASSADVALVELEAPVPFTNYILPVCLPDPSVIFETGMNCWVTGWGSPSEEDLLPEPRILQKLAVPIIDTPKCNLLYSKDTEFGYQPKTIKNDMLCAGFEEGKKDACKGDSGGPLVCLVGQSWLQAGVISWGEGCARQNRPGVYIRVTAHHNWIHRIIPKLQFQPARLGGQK
Briefly: Amidolytic activity of activated protease T on chromogenic pNA substrates. Type of assay: biochemical. Conditions: substrate at 500 uM; 10 mM Tris-HCl pH 7.8, 25 mM NaCl, 25 mM imidazole; pNA release over 120 minutes at 37° C., 405 nm; N.A. = No Activity. The procedure:
The conditioned medium from infected Sf9 cells was used to purify secreted recombinant PFEK-protease T-HA6×HIS zymogen. The medium was concentrated 5 to 10 fold using a Centriprep concentrator (Amicon Inc., Beverly, Mass.). 150 μl of a 50% Ni-NTA slurry (Qiagen, Valencia, Calif.) was added to 5 to 10 ml of the concentrated medium and mixed by shaking at 4° C. for 60 minutes. The zymogen-bound resin was washed 3 times with 1.5 ml of wash buffer (10 mM Tris-HCl (pH 8.0), 300 mM NaCl, and 15 mM imidazole), followed by with a 1.5 ml wash with ds H2O. Enterokinase cleavage was carried out by adding enterokinase (Novagen, Inc., Madison Wis.; or Sigma, St. Louis, Mo.) to the zymogen-bound Ni-NTA beads in a 150 ul volume at room temperature overnight with gentle shaking in a buffer containing 20 mM Tris-HCl (pH 7.4), 50 mM NaCl, and 2.0 mM CaCl2. The resin was then washed twice with 1.5 ml wash buffer. The activated protease T-HA6×HIS was eluted with elution buffer (20 mM Tris-HCl (pH 7.8), 250 mM NaCl, and 250 mM imidazole). Eluted protein concentration was determined by a Micro BCA Kit (Pierce, Rockford, Ill.) using bovine serum albumin as a standard. Amidolytic activities of the activated protease T-HA6×HIS was monitored by release of para-nitroaniline (pNA) from the synthetic substrates indicated in Table 1 and FIG. 6. […] Release of pNA was measured over 120 minutes at 37° C. on a micro-plate reader (Molecular Devices, Menlo Park, Calif.) with a 405 nm absorbance filter. The initial reaction rates (Vmax, mOD/min) were determined from plots of absorbance versus time using Softmax (Molecular Devices, Menlo Park, Calif.). […]
Amidolytic activities of the activated serine proteases are monitored by release of para-nitroaniline (pNA) from synthetic substrates that are commercially available (Bachem California Inc., Torrance, […].; American Diagnostica Inc., Greenwich, Conn.; Kabi Pharmacia Hepar Inc., Franklin, Ohio). […] Release of pNA is measured over 120 min at 37° C. on a micro-plate reader (Molecular Devices, Menlo Park, Calif.) with a 405 nm absorbance filter. […]
Regarding “H-DL-Val-Leu-Arg-pNA (H-Val-Leu-Arg-pNA; also: DL-Val (racemic) at 1) [commercially available chromogenic substrate]”, the “Specific Activity” value is 0.016 ± 0.003 nmole pNA produced/min/μg protein.
On to “H-D-Pro-HHT-Arg-pNA (H-[dP]-[HHT]-Arg-pNA; reading uncertain; also: printed as H-D-Pro-HHT-Arg-pNA) [commercially available chromogenic substrate]”, for which the “Specific Activity” value is on record as 0.010 ± 0.000 nmole pNA produced/min/μg protein.
Turning to “H-D-Lys(CBO)-Pro-Arg-pNA (H-[dK](CBO)-Pro-Arg-pNA) [commercially available chromogenic substrate]”, the “Specific Activity” value is on record as 0.057 ± 0.022 nmole pNA produced/min/μg protein.

For the origin of these results see US6861399B2, “Cleaning compositions containing human serine protease T” (Ortho-McNeil Pharmaceutical , Inc., priority 1999, dated 2005).
